Data published in patent US20060286032A1, “A radiosotope-chitosan complex for treatment of prostate cancer” (priority 2003, published 2006).
Marks after values point to notes of the source that are not given here.

What was measured:
[1] = Radioactive concentrations in collected organs and tissues by liquid scintillation counter after injection into the prostate gland; assay type: in vivo, SD rats; conditions: for Administered radioactivity retained in the prostate gland: until 144 hrs after administration
Procedure: After the complex solution was administered, accurate radioactive concentrations were measured in various organs. 25 μl of the complex solution as a test drug were administered to the prostate gland in the abdominal region of SD rats, which was equal to about 100 μCi. After 0.5, 2, 6, 24, 72 and 144 hrs, the rats were anesthetized with diethylether and exsanguinated by incision of abdominal aorta. Various organs and tissues were collected, which included blood, plasma, brain, thymus, heart, lung, liver, kidney, adrenal gland, spleen, pancreas, testes, prostate gland (including an administration site), seminal vesicle, epididymis, bladder, skeletal muscle, bones, bone marrow, skin, carcass, stomach, small intestine, rectum and large intestine. The collected organs and tissues were weighed, sectioned and homogenized. The whole sample or the supernatant was assayed for radioactivity using a liquid scintillation counter. The measured radioactive concentrations in various organs and tissues according to the time are given in Table 3 (% ID/g) and Table 4 (% of dose).

[2] = Cumulative urinary and fecal excretion of radioactivity for 72 hrs after injection into the prostate gland; assay type: in vivo, SD rats; conditions: for Radioactivity remaining in Carcass / Radioactivity remaining in Prostate gland: 72 hr; for Total recovery rate: 72 hrs
Procedure: After the complex solution was administered to the prostate gland, cumulative urinary and fecal excretions of radioactivity were examined to investigate the amount of excreted ^166Ho. 25 μl of the test drug was administered to the prostate gland of SD rats, which was equal to about 100 μCi. The amount of radioactivity excreted for 72 hrs was measured. The rats were kept in metabolic cages made of a stainless material. Urine and feces were collected, and, 72 hrs after administration, the rats were sacrificed with diethylether. Radioactivity remaining in the carcass and the prostate gland was also measured.

[3] = test system: DU-145 carcinoma cell line (hormone-independent prostate carcinoma cell line); test: Antitumor effect in DU-145 subcutaneous tumor model, intratumoral injection; assay type: in vivo, nude mice; conditions: for Tumor volume after injection: intratumoral; for Tumor growth inhibition rate: last day of the test (2 wks), tumor volume vs control
Procedure: To investigate the effect of the complex on hormone-independent prostate cancer, a DU-145 carcinoma cell line (hormone-independent prostate carcinoma cell line), which is rarely produces prostate-specific antigen, was transplanted into nude mice and the antitumor effect of the complex was evaluated.
The DU-145 cells were cultured in 10% FBS (fetal bovine serum)-containing F-12K(Kaign's Modification of Ham's F-12 medium) in a 5% CO2 incubator at 37° C., and 2×10^5 cells/0.2 ml/head were subcutaneously transplanted into the lumbar portion of male 6-week nude mice. When the long axis of the tumor was about 1 cm long, the complex solution was intratumorally injected. The administration volume of the test drug was 0.2 ml. The mice were divided into four groups: a control group (no treatment); two administration groups administered with the complex solution at doses of 10 mCi and 20 mCi per 1 cm^3 tumor; and another administration group administered with a non-radioactive complex solution [Holmium-165 (^165Ho)-chitosan complex solution]. Two weeks after administration with the complex solution, the mice were histopathologically examined to evaluate the antitumor effect and toxicity to major organs of the complex.

[4] = test system: AIT carcinoma (androgen-independent carcinoma cell line); test: Antitumor effect in AIT subcutaneous tumor model; assay type: in vivo, noble rats; conditions: for Tumor weight: four weeks after administration; for Tumor growth inhibition rate: four weeks, tumor weight vs control
Procedure: To evaluate the effect of the complex on hormone-independent prostate cancer, an AIT carcinoma (androgen-independent carcinoma cell line) was transplanted into noble rats, and the antitumor effect of the complex was examined.
An androgen-independent, prostate carcinoma cell line, AIT, which is derived from noble rats, was cultured in 10% FBS-containing DMEM at 37° under 5% CO2. The cultured carcinoma cells were suspended in sterile physiological saline at a density of 4×10^6 cells/ml, and 2×10^6 cells were subcutaneously transplanted into the lateral abdomen of male 5-week noble rats. When the long axis of the tumor was about 1 cm long (in this test, 14 days after transplantation), the rats were grouped according to the tumor mass. The kit prepared in Example 2 was used as a test drug, and was administered at the same dose as in Experimental Example 5, that is, 0.2 ml. The rats were divided into four groups: a control group (no treatment); two administration groups administered with the complex solution at 10 mCi and 20 mCi per 1 cm^3 tumor; and another administration group administered with a non-radioactive complex solution (Holmium-165 (^165Ho)-chitosan complex solution). Four weeks after administration with the complex solution, tumors were excised from the rats, and tumor growth inhibition rates were measured by weighing the tumors.

[5] = Histopathological examination of organs of rats of the orthotopic model (hematoxylin and eosin); assay type: in vivo, noble rats; conditions: for Histopathological changes in organs other than the tumor tissue (heart, lung, liver, kidney, spleen, testes, epididymis, seminal vesicle, bladder, rectum): last day of the test
Excerpt: (§1) From all rats tested in Experimental Example 7, which were sacrificed on the last day of the test, the heart, lung, liver, kidney, spleen, testes, epididymis, seminal vesicle, bladder, rectum and tumor tissues were excised, embedded in paraffin according to general tissue processing, and sectioned into a thickness of 3 μm. The tissue sections were subjected to double staining with hematoxylin and eosin and histopathologically examined.

[6] = test system: AIT tumor transplanted into the prostate gland; test: Histopathological examination of tumor tissue of rats of the orthotopic model (hematoxylin and eosin); assay type: in vivo, noble rats
Excerpt: as §1

[7] = listed as radioisotope-chitosan complex
[8] = 0.5 mCi, four weeks after administration (FIG. 2 C and D)

## Holmium-166 (^166Ho)-Chitosan Complex [complex solution]
[1]; 30 min after injection
  Radioactive concentration, Blood: 26 ± 10 % ID/g ×10^−4
  Radioactive concentration, Bones: 71 ± 55 % ID/g ×10^−4
  Radioactive concentration, Plasma: 44 ± 16 % ID/g ×10^−4
[1]; 2 hrs after injection
  Radioactive concentration, Blood: 19 ± 9 % ID/g ×10^−4
  Radioactive concentration, Bones: 189 ± 79 % ID/g ×10^−4
  Radioactive concentration, Plasma: 32 ± 11 % ID/g ×10^−4
[1]; 6 hrs after injection
  Radioactive concentration, Bone marrow: 17 % ID/g ×10^−4
  Radioactive concentration, Bones: 185 ± 107 % ID/g ×10^−4
[1]; 24 hrs after injection
  Radioactive concentration, Bone marrow: 32 ± 4 % ID/g ×10^−4
  Radioactive concentration, Bones: 711 ± 413 % ID/g ×10^−4
[1]; 72 hrs after administration
  Radioactive concentration in other tissues (other than prostate gland, carcass, liver): less than 0.1%
[1]; 72 hrs after injection
  Radioactive concentration, Bone marrow: 109 ± 40 % ID/g ×10^−4
  Radioactive concentration, Bones: 2343 ± 827 % ID/g ×10^−4
[1]; 144 hrs after injection
  Radioactive concentration, Bones: 1708 ± 506 % ID/g ×10^−4
[1]; rat, in vivo
  Radioactivity in major organs (brain, thymus, heart, lung, adrenal gland, spleen) and adjacent organs (bladder, rectum, testes, epididymis): rarely detected
[1]
  Administered radioactivity retained in the prostate gland: over 98%
[1]; [7]
  Administered radioactivity retained in the prostate gland: more than 98%
[2]; 0-3 hr, animal 1
  Cumulative excretion, Urine: 0.03 % of dose
[2]; 0-3 hr, animal 2
  Cumulative excretion, Urine: 0.03 % of dose
[2]; 0-3 hr, animal 3
  Cumulative excretion, Urine: 0.04 % of dose
[2]; 0-6 hr, animal 1
  Cumulative excretion, Urine: 0.04 % of dose
[2]; 0-6 hr, animal 2
  Cumulative excretion, Urine: 0.04 % of dose
[2]; 0-6 hr, animal 3
  Cumulative excretion, Urine: 0.05 % of dose
[2]; 0-24 hr, animal 1
  Cumulative excretion, Urine: 0.11 % of dose
[2]; 0-24 hr, animal 2
  Cumulative excretion, Urine: 0.13 % of dose
[2]; 0-24 hr, animal 3
  Cumulative excretion, Urine: 0.17 % of dose
[2]; 0-72 hr, Mean
  Cumulative excretion, Feces: 0.11 % of dose
  Cumulative excretion, Urine: 0.35 % of dose
[2]; 0-72 hr, animal 3
  Cumulative excretion, Feces: 0.11 % of dose
[2]; Mean
  Radioactivity remaining in Carcass: 2.67 % of dose
  Radioactivity remaining in Prostate gland: 99.19 % of dose
  Total recovery rate: 99.65%
[2]; animal 1
  Radioactivity remaining in Carcass: 2.32 % of dose
  Radioactivity remaining in Prostate gland: 98.84 % of dose
  Total recovery rate: 99.23%
[2]; animal 2
  Radioactivity remaining in Carcass: 3.27 % of dose
  Radioactivity remaining in Prostate gland: 96.79 % of dose
  Total recovery rate: 97.27%
[2]; animal 3
  Radioactivity remaining in Carcass: 2.42 % of dose
  Radioactivity remaining in Prostate gland: 101.94 % of dose
  Total recovery rate: 102.46%
[3]; 10 mCi per 1 cm^3 tumor, 1 wk
  Tumor volume after injection: 0.48 ± 0.35 cm^3
[3]; 10 mCi per 1 cm^3 tumor, 2 wks
  Tumor volume after injection: 0.32 ± 0.20* cm^3
[3]; 10 mCi per 1 cm^3 tumor
  Tumor growth inhibition rate: 95.1%
[3]; 20 mCi per 1 cm^3 tumor, 1 wk
  Tumor volume after injection: 0.28 ± 0.04 cm^3
[3]; 20 mCi per 1 cm^3 tumor, 2 wks
  Tumor volume after injection: 0.09 ± 0.24* cm^3
[3]; 20 mCi per 1 cm^3 tumor
  Tumor growth inhibition rate: 98.6%
[3]; 20 mCi per 1 cm^3 tumor, listed as Complex
  Tumor growth inhibition rate: 98.6%
[3]; subcutaneous tumor model
  Inhibitory activity against the tumor growth: higher than 95%
[4]; 10 mCi per 1 cm^3 tumor
  Tumor weight: 2.1 ± 0.78 g
  Tumor growth inhibition rate: 90.7%
[4]; 20 mCi per 1 cm^3 tumor
  Tumor weight: 0.7 ± 0.18 g
  Tumor growth inhibition rate: 96.7%
[4]; subcutaneous tumor model
  Inhibitory activity against the tumor growth: higher than 90%
[5]; listed as present complex solution
  Histopathological changes in organs other than the tumor tissue (heart, lung, liver, kidney, spleen, testes, epididymis, seminal vesicle, bladder, rectum): no abnormalities in adjacent organs were found
[5]; [7]
  Histopathological changes in organs other than the tumor tissue (heart, lung, liver, kidney, spleen, testes, epididymis, seminal vesicle, bladder, rectum): particular histopathological changes are not found
[5]; rat, in vivo
  Cellularity of the bone marrow and peripheral blood: not reduced
[6]; [8]
  Histopathology of the tumor, center of injection site: broad necrosis
  Tumor cells in injection site: all of tumor cells in injection site are necrotized
[6]; last day of the test
  Histopathology of the tumor tissue at the administration site: a large necrosis
